# In a protein production outcome set (Wang et al. 2014):
# Experiment: label from the status in PepcDB records
row,Sequence,protein production
1,MVQAHGGRSRAQPLTLSLGAAMTQPPPEKTPAKKHVRLQERRGSNVALMLDVRSLGAVEPICSVNTPREVTLHFLRTAGHPLTRWALQRQPPSPKQLEEEFLKIPSNFVSPEDLDIPGHASKDRYKTILPNPQSRVCLGRAQSQEDGDYINANYIRGYDGKEKVYIATQGPMPNTVSDFWEMVWQEEVSLIVMLTQLREGKEKCVHYWPTEEETYGPFQIRIQDMKECPEYTVRQLTIQYQEERRSVKHILFSAWPDHQTPESAGPLLRLVAEVEESPETAAHPGPIVVHCSAGIGRTGCFIATRIGCQQLKARGEVDILGIVCQLRLDRGGMIQTAEQYQFLHHTLALYAGQLPEEPSP,failed
2,MVQAQTRDQIVAAADELFYRQGFAQTSFVDISAAVGISRGNFYYHFKTKDEILAEVIRLRLARTAQMLADWQGTGDSPRARIASFIDLMIMNRAKITRYGCPVGSLCTELSKLDHAAQGQANGLFTLFRDWLQRQFAEAGCTTEAPALAMHLLARSQGAATLAQSFHDEGFLRSEVADMHRWLDNTLPMTT,not failed
3,MVQEPTQDHLIGTTVDGRYTVRSRLASGGMSTVYLATDQRLERDVALKVLHPHLANDPTFLERLSREAKAAASLSHPHIVGVLDQGEDGTIAYLVMEYVKGHTLRDTLNEQGALQPRLALALIDPVIEGLAAAHRSGLIHRDVKPENVLIADDGRIKVGDFGLARAISANTSTGALIGTVAYLAPELVLGQPADARSDIYSAGIMLYEMLTGKQPYAGDSPIQVAYQHVNAAVGRPSDAAPGLAEDLDELVQWCTAVDAENRPVDGTALLTELRHIRTTLTDEDLDRRQAPSQPPGSPAAATAAAALGGPGGNPTEAIPATASPTEMISHQSNPTTIMAAAGSGRPQTAAVGAVNHEVVRQPGKRELKRLERQEIKDRARAAATPSRPLREGNPRRRGIIWTIVIVILATLAASAGWFFGMGPGSPGTVPDVKNKTVAEAQQLLRTAGFQSEPKDVFDDDILAGLAVGTEPESGAEVRKFQPITLFVSKGAQLFALPTLTGGSLDEAKTALNAAEMALGNVTQAFDEKVPAGVVISQDPAKGTEVRHGTPVSLVVSKGPQPIPVPDVRGLAQDAAVKALQDAGLTAVIAPETVNDKTVPKGAVVSQVPANGTLVRGEAVTLTVSKGPKLVKVPSFIGKQADEAEKELKKLGFKVQVNKVLGGFFGTVRDQNPVNTEIPEDSVVTLTVV,failed
4,MVQHLTAEEIIQYISDAKKSTPIKVYLNGNFEGITYPESFKVFGSEQSKVIFCEADDWKPFYEAYGSQFEDIEIEMDRRNSAIPLKDLTNTNARIEPGAFIREQAIIEDGAVVMMGATINIGAVVGEGTMIDMNATLGGRATTGKNVHVGAGAVLAGVIEPPSASPVIIEDDVLIGANAVILEGVRVGKGAIVAAGAIVTQDVPAGAVVAGTPAKVIKQASEVQDTKKEIVAALRKLND,not failed
5,MVQLIKKYEDLLCLLDELIKNESTFRWDEFYLERERDVPFFVLAPDEQLVEYVCTGLIESGKVLELGCGPGRNAIYLAENHFEVDVVDLSQKAIDWAMDRANERKASIRFIRENIFNLNVNKASYDLVYDSGCFHHIPPHRRMDYIHLVTTALKPGGHFGLTCFIENGPLGGAAISDLDVYRQQSLQGGLGFTEQKLIQIFDDFAVIEIRKMKEYPNDSSRFGVNGLLTALFQKKKVEKVKLEHHHHHH,failed
6,MVQLSLSQVHQDQIYRHGERCYPEECCGLLLGKILIGENGHRHWQVVEVQPTENCWGDVEEFQQNNHQGNKLHYFAIDPKVLLSAQKDCRQKGLSIIGIFHSHPHGQPIPSEFDRAIAWPEYIYLIASGLEHHHHHH,failed
7,MVQTIIDPVILPFNGDDTKSSLLTGGDPPSAAELAAKTVEDQLPREANPTAPAVAPLSLSLEDLKAILATVTKDLSQRLTAGSTS,failed
8,MVRGDAVIVQAALQDGHWSGRADVLRRVEIPSGLGAWSSVVEDKKQALDLVDRVLSKNPASASAHRTKGAILLFGHPEEAMAEYDAALEIDPNNPAVYAAKTITLIVTGRAREAFSPLQLAHCYVCFGHCARVAEARCSIRTQGAGLRRVALLARSRT,failed
9,MVRGIRGAITVEEDTPEAIHQATRELLLKMLEANGIQSYEELAAVIFTVTEDLTFAFPAEAARQIGMHRVPLLSAREVPVPGSLPRVIRVLALWNTDTPQDRVRHVYLREAVRLRPDLESAQ,not failed
10,MVRHRGNKEERQQALRRYLRSNPFATDEELAEKFEVSVPTIRLDRLALGIPEVRERIMAMAQEARSRMRGVTAEELVGELVELQPGVMGISILEITPPMLVQPAGVARGYYLFAQAHSLALATVGAEVVLTSSARVRYRRPVYAGERVVARAMVKVVKDSTCLVSVHSRVNGEIVFKGRYIIITPDAATGGGSA,failed
